Measurements published in IntAct's records for PubMed 20308429.

Biological target: vinc_mouse Vcl (UniProt Q64727)
Sequence (Q64727 whole entry): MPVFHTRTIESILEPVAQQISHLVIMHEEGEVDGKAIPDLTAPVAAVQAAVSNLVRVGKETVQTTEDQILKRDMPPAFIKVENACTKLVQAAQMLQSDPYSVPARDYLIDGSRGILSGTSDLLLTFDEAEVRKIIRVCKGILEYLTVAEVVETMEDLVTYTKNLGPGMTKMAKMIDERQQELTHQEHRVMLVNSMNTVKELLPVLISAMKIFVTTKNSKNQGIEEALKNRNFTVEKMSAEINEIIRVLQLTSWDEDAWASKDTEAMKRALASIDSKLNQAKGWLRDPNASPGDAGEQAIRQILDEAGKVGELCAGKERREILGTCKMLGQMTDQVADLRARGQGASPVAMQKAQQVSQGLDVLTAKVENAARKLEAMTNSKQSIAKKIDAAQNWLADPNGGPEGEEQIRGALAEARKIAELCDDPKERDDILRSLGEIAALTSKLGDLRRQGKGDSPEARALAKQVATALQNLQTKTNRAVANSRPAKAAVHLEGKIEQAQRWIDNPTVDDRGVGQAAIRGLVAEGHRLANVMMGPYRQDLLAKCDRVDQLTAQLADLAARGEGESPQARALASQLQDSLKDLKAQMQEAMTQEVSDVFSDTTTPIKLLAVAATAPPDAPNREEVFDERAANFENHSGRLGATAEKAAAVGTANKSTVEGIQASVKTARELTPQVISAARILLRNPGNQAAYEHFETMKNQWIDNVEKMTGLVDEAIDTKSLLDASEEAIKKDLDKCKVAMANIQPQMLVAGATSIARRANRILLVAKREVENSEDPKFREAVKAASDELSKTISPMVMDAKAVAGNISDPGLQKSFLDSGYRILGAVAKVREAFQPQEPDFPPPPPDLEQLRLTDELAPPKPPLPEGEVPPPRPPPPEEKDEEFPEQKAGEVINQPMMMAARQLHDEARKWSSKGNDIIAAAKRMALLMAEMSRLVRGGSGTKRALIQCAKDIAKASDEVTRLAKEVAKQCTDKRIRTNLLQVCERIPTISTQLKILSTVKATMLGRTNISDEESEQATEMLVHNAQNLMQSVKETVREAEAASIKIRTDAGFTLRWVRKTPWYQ

Sequence of Paxillin (Gallus gallus (Chicken)), P49024 Y31E;Y118E (P49024 whole entry Y31E/Y118E): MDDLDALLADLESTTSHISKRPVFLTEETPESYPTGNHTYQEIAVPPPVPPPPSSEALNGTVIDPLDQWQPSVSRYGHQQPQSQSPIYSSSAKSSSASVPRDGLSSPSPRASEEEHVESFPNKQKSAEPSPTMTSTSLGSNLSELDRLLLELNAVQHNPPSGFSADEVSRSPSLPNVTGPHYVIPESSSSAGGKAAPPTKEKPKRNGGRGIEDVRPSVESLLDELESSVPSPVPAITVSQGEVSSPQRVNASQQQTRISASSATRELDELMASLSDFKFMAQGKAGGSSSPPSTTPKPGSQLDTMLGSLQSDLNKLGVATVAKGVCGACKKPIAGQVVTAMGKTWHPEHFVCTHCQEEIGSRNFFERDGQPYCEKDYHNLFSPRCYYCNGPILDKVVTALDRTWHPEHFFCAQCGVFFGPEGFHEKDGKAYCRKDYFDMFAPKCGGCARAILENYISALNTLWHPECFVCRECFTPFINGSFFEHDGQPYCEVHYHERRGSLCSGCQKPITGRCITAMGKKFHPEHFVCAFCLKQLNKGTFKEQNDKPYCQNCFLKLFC
Sequence of Paxillin (Gallus gallus (Chicken)), P49024 Y31F;Y118F (P49024 whole entry Y31F/Y118F): as the sequence (P49024 whole entry Y31E/Y118E) above, with E31F, E118F counted along it

Substance	effect of a mutation on the interaction
Paxillin (Gallus gallus (Chicken)), P49024 Y31F;Y118F	decreasing interaction
Paxillin (Gallus gallus (Chicken)), P49024 Y31E;Y118E	increasing interaction
